Measured values: the supplement of paper PMC9112550, “Optimization of the antimicrobial peptide Bac7 by deep mutational scanning” (BMC Biology, 2022)

Tested on: Escherichia coli TOP10
Assay: shrunken log2 fold change of peptide-encoding DNA abundance (4.5 h post-induction vs induction); higher = less antimicrobial activity (less host growth inhibition)
Settings: time post-induction: 4.5 h; library: site-saturation at positions 5, 18, 19, 20
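Note: peptides expressed intracellularly from a pBAD plasmid library in pooled LB shake-flask culture, induced with 0.3% L-arabinose, DNA abundance read by NGS, three biological replicates, DESeq2 with apeglm shrinkage.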

In the case of RRIRKRPPRLPRPRPRPHLHPRP, the “shrunken log2 fold change” value is reported as 0.265.

With RRIRKRPPRLPRPRPRPHMEPRP the “shrunken log2 fold change” value was 0.0155.

In the case of RRIRKRPPRLPRPRPRPHMWPRP, the “shrunken log2 fold change” value is reported as -0.174.

In the case of RRIRKRPPRLPRPRPRPHNEPRP, the “shrunken log2 fold change” value is reported as 0.323.

For RRIRKRPPRLPRPRPRPHQLPRP, the “shrunken log2 fold change” value was 0.0824.

For RRIRKRPPRLPRPRPRPHQTPRP, the “shrunken log2 fold change” value was 0.202.

With RRIRKRPPRLPRPRPRPHRWPRP the “shrunken log2 fold change” value was 0.00588.

With RRIRKRPPRLPRPRPRPHTFPRP the “shrunken log2 fold change” value was -0.309.

With RRIRKRPPRLPRPRPRPHTLPRP the “shrunken log2 fold change” value was -0.168.

With RRIRKRPPRLPRPRPRPHVKPRP the “shrunken log2 fold change” value was -0.258.

RRIRKRPPRLPRPRPRPHVRPRP was tested, and the “shrunken log2 fold change” value was -0.0167.

In the case of RRIRKRPPRLPRPRPRPHWCPRP, the “shrunken log2 fold change” value is reported as 1.98.

For RRIRKRPPRLPRPRPRPHWTPRP, the “shrunken log2 fold change” value was -0.0277.

In the case of RRIRKRPPRLPRPRPRPHYAPRP, the “shrunken log2 fold change” value is reported as -0.0144.

With RRIRKRPPRLPRPRPRPIAGPRP the “shrunken log2 fold change” value was -0.0506.

In the case of RRIRKRPPRLPRPRPRPIANPRP, the “shrunken log2 fold change” value is reported as 0.339.

With RRIRKRPPRLPRPRPRPIASPRP the “shrunken log2 fold change” value was 0.0246.

RRIRKRPPRLPRPRPRPICAPRP was tested, and the “shrunken log2 fold change” value was 0.363.

For RRIRKRPPRLPRPRPRPICQPRP, the “shrunken log2 fold change” value was -0.0166.

For RRIRKRPPRLPRPRPRPICSPRP, the “shrunken log2 fold change” value was -9.46e-05.

RRIRKRPPRLPRPRPRPIDFPRP was tested, and the “shrunken log2 fold change” value was 0.131.

In the case of RRIRKRPPRLPRPRPRPIEHPRP, the “shrunken log2 fold change” value is reported as 0.332.

With RRIRKRPPRLPRPRPRPIEKPRP the “shrunken log2 fold change” value was 0.694.

With RRIRKRPPRLPRPRPRPIGHPRP the “shrunken log2 fold change” value was 0.0336.

In the case of RRIRKRPPRLPRPRPRPIGLPRP, the “shrunken log2 fold change” value is reported as 0.0815.

For RRIRKRPPRLPRPRPRPIHHPRP, the “shrunken log2 fold change” value was 0.0077.

RRIRKRPPRLPRPRPRPIHPPRP was tested, and the “shrunken log2 fold change” value was 0.0728.

For RRIRKRPPRLPRPRPRPIIKPRP, the “shrunken log2 fold change” value was 0.232.

In the case of RRIRKRPPRLPRPRPRPILLPRP, the “shrunken log2 fold change” value is reported as -0.313.

In the case of RRIRKRPPRLPRPRPRPIMNPRP, the “shrunken log2 fold change” value is reported as -0.119.

For RRIRKRPPRLPRPRPRPIMYPRP, the “shrunken log2 fold change” value was 0.0532.

With RRIRKRPPRLPRPRPRPINWPRP the “shrunken log2 fold change” value was 0.0577.

With RRIRKRPPRLPRPRPRPIRLPRP the “shrunken log2 fold change” value was -0.0783.

For RRIRKRPPRLPRPRPRPIRWPRP, the “shrunken log2 fold change” value was 0.0019.

For RRIRKRPPRLPRPRPRPISAPRP, the “shrunken log2 fold change” value was 0.164.

With RRIRKRPPRLPRPRPRPITFPRP the “shrunken log2 fold change” value was -0.0147.

With RRIRKRPPRLPRPRPRPITVPRP the “shrunken log2 fold change” value was 0.0944.

For RRIRKRPPRLPRPRPRPIVMPRP, the “shrunken log2 fold change” value was 0.0102.

For RRIRKRPPRLPRPRPRPIWYPRP, the “shrunken log2 fold change” value was -0.26.

With RRIRKRPPRLPRPRPRPIYDPRP the “shrunken log2 fold change” value was -0.0349.

RRIRKRPPRLPRPRPRPIYLPRP was tested, and the “shrunken log2 fold change” value was -0.305.

RRIRKRPPRLPRPRPRPKACPRP was tested, and the “shrunken log2 fold change” value was -0.00804.

In the case of RRIRKRPPRLPRPRPRPKAHPRP, the “shrunken log2 fold change” value is reported as 0.242.

With RRIRKRPPRLPRPRPRPKATPRP the “shrunken log2 fold change” value was 0.0944.

With RRIRKRPPRLPRPRPRPKCRPRP the “shrunken log2 fold change” value was 0.175.

In the case of RRIRKRPPRLPRPRPRPKDCPRP, the “shrunken log2 fold change” value is reported as -0.0519.

With RRIRKRPPRLPRPRPRPKEWPRP the “shrunken log2 fold change” value was 0.222.

With RRIRKRPPRLPRPRPRPKFCPRP the “shrunken log2 fold change” value was 0.0649.

With RRIRKRPPRLPRPRPRPKFLPRP the “shrunken log2 fold change” value was 0.119.

With RRIRKRPPRLPRPRPRPKFWPRP the “shrunken log2 fold change” value was 0.798.

For RRIRKRPPRLPRPRPRPKGFPRP, the “shrunken log2 fold change” value was 0.0233.

With RRIRKRPPRLPRPRPRPKGKPRP the “shrunken log2 fold change” value was 0.302.

In the case of RRIRKRPPRLPRPRPRPKGNPRP, the “shrunken log2 fold change” value is reported as 0.325.

RRIRKRPPRLPRPRPRPKHAPRP was tested, and the “shrunken log2 fold change” value was -0.0322.

RRIRKRPPRLPRPRPRPKHVPRP was tested, and the “shrunken log2 fold change” value was 0.473.

RRIRKRPPRLPRPRPRPKIHPRP was tested, and the “shrunken log2 fold change” value was -0.152.

For RRIRKRPPRLPRPRPRPKINPRP, the “shrunken log2 fold change” value was -0.116.

For RRIRKRPPRLPRPRPRPKKFPRP, the “shrunken log2 fold change” value was 0.0892.

In the case of RRIRKRPPRLPRPRPRPKKNPRP, the “shrunken log2 fold change” value is reported as 0.555.

RRIRKRPPRLPRPRPRPKLHPRP was tested, and the “shrunken log2 fold change” value was 0.129.
